Source: IntAct's records for PubMed 35512704

B1: Speckle-type POZ protein (Homo sapiens), O43791 (parent)
chain: MSRVPSPPPPAEMSSGPVAESWCYTQIKVVKFSYMWTINNFSFCREEMGEVIKSSTFSSGANDKLKWCLRVNPKGLDEESKDYLSLYLLLVSCPKSEVRAKFKFSILNAKGEETKAMESQRAYRFVQGKDWGFKKFIRRDFLLDEANGLLPDDKLTLFCEVSVVQDSVNISGQNTMNMVKVPECRLADELGGLWENSRFTDCCLCVAGQEFQAHKAILAARSPVFSAMFEHEMEESKKNRVEINDVEPEVFKEMMCFIYTGKAPNLDKMADDLLAAADKYALERLKVMCEDALCSNLSVENAAEILILADLHSADQLKTQAVDFINYHASDVLETSGWKSMVVSHPHLVAEAYRSLASAQCPFLGPPRKRLKQS

Variants of: B1
Settings: with kdm5a_human KDM5A

Variant | effect of a mutation on the interaction
F102C | with no effect

Variants of: B1
Settings: with kdm5c_human KDM5C

Variant | effect of a mutation on the interaction
F102C | with no effect

Variants of: B1
Settings: with kdm6a_human KDM6A

Variant | effect of a mutation on the interaction
F102C | with no effect

Variants of: B1
Settings: with vgfr2_human KDR

Variant | effect of a mutation on the interaction
F102C | with no effect

Variants of: B1
Settings: with lims1_human LIMS1, P48059

Variant | effect of a mutation on the interaction
F102C | with no effect

Variants of: B1
Settings: with maga6_human MAGEA6, P43360

Variant | effect of a mutation on the interaction
F102C | with no effect

Variants of: B1
Settings: with m3k1_human MAP3K1, Q13233

Variant | effect of a mutation on the interaction
F102C | with no effect

Variants of: B1
Settings: with mk10_human MAPK10, P53779

Variant | effect of a mutation on the interaction
F102C | with no effect

Variants of: B1
Settings: with mk14_human MAPK14, Q16539

Variant | effect of a mutation on the interaction
F102C | with no effect

Variants of: B1
Settings: with mk03_human MAPK3, P27361

Variant | effect of a mutation on the interaction
F102C | with no effect

Variants of: B1
Settings: with mk04_human MAPK4, P31152

Variant | effect of a mutation on the interaction
F102C | with no effect

Variants of: B1
Settings: with mk06_human MAPK6, Q16659
mk06_human MAPK6, Q16659, sequence (Q16659 whole entry): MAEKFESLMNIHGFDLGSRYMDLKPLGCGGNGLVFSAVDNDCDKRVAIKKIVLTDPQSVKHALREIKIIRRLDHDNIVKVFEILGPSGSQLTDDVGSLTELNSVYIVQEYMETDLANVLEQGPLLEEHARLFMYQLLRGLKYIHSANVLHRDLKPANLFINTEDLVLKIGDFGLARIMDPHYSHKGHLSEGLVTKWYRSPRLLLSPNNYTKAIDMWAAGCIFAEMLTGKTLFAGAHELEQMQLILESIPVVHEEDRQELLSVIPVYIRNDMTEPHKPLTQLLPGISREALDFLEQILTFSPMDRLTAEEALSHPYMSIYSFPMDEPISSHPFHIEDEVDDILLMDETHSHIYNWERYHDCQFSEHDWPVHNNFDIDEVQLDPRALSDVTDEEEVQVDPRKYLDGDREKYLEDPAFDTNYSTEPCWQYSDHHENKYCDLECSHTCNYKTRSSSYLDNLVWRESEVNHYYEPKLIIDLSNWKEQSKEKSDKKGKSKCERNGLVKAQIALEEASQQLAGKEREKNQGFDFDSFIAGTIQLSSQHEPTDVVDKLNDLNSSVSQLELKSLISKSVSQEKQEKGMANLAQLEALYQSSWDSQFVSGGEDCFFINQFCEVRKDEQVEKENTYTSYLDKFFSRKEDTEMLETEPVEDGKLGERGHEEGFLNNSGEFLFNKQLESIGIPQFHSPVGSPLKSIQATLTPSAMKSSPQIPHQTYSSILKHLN

Variant | effect of a mutation on the interaction
F102C | with no effect

Variants of: B1
Settings: with sin1_human MAPKAP1, Q9BPZ7

Variant | effect of a mutation on the interaction
F102C | with no effect

Variants of: B1
Settings: with mcl1_human MCL1, Q07820

Variant | effect of a mutation on the interaction
F102C | with no effect

Variants of: B1
Settings: with mdm2_human MDM2, Q00987

Variant | effect of a mutation on the interaction
F102C | with no effect

Variants of: B1
Settings: with mef2a_human MEF2A

Variant | effect of a mutation on the interaction
F102C | with no effect

Variants of: B1
Settings: with mitf_human MITF

Variant | effect of a mutation on the interaction
F102C | with no effect

Variants of: B1
Settings: with mtor_human MTOR

Variant | effect of a mutation on the interaction
F102C | with no effect

Variants of: B1
Settings: with mybb_human MYBL2, P10244

Variant | effect of a mutation on the interaction
F102C | with no effect

Variants of: B1
Settings: with myc_human MYC

Variant | effect of a mutation on the interaction
F102C | with no effect

Variants of: B1
Settings: with mycn_human MYCN

Variant | effect of a mutation on the interaction
F102C | with no effect

Variants of: B1
Settings: with ncoa3_human NCOA3, Q9Y6Q9

Variant | effect of a mutation on the interaction
F102C | with no effect

Variants of: B1
Settings: with ikba_human NFKBIA

Variant | effect of a mutation on the interaction
F102C | with no effect

Variants of: B1
Settings: with nox1_human NOX1, Q9Y5S8

Variant | effect of a mutation on the interaction
F102C | with no effect

Variants of: B1
Settings: with ntrk2_human NTRK2, Q16620

Variant | effect of a mutation on the interaction
F102C | with no effect

Variants of: B1
Settings: with ntrk3_human NTRK3, Q16288

Variant | effect of a mutation on the interaction
F102C | with no effect

Variants of: B1
Settings: with pak3_human PAK3, O75914

Variant | effect of a mutation on the interaction
F102C | with no effect

Variants of: B1
Settings: with prkn_human PRKN

Variant | effect of a mutation on the interaction
F102C | with no effect

Variants of: B1
Settings: with pcbp1_human PCBP1, Q15365

Variant | effect of a mutation on the interaction
F102C | with no effect

Variants of: B1
Settings: with pdcd1_human PDCD1, Q15116

Variant | effect of a mutation on the interaction
F102C | with no effect

Variants of: B1
Settings: with pgfrb_human PDGFRB

Variant | effect of a mutation on the interaction
F102C | with no effect

Variants of: B1
Settings: with pdk1_human PDK1, Q15118

Variant | effect of a mutation on the interaction
F102C | with no effect

Variants of: B1
Settings: with PIK3C2B

Variant | effect of a mutation on the interaction
F102C | with no effect

Variants of: B1
Settings: with pk3ca_human PIK3CA

Variant | effect of a mutation on the interaction
F102C | with no effect

Variants of: B1
Settings: with pk3cb_human PIK3CB

Variant | effect of a mutation on the interaction
F102C | with no effect

Variants of: B1
Settings: with pk3cg_human PIK3CG

Variant | effect of a mutation on the interaction
F102C | with no effect

Variants of: B1
Settings: with p85b_human PIK3R2, O00459

Variant | effect of a mutation on the interaction
F102C | with no effect

Variants of: B1
Settings: with dpod1_human POLD1, P28340
dpod1_human POLD1, P28340, sequence (P28340 whole entry): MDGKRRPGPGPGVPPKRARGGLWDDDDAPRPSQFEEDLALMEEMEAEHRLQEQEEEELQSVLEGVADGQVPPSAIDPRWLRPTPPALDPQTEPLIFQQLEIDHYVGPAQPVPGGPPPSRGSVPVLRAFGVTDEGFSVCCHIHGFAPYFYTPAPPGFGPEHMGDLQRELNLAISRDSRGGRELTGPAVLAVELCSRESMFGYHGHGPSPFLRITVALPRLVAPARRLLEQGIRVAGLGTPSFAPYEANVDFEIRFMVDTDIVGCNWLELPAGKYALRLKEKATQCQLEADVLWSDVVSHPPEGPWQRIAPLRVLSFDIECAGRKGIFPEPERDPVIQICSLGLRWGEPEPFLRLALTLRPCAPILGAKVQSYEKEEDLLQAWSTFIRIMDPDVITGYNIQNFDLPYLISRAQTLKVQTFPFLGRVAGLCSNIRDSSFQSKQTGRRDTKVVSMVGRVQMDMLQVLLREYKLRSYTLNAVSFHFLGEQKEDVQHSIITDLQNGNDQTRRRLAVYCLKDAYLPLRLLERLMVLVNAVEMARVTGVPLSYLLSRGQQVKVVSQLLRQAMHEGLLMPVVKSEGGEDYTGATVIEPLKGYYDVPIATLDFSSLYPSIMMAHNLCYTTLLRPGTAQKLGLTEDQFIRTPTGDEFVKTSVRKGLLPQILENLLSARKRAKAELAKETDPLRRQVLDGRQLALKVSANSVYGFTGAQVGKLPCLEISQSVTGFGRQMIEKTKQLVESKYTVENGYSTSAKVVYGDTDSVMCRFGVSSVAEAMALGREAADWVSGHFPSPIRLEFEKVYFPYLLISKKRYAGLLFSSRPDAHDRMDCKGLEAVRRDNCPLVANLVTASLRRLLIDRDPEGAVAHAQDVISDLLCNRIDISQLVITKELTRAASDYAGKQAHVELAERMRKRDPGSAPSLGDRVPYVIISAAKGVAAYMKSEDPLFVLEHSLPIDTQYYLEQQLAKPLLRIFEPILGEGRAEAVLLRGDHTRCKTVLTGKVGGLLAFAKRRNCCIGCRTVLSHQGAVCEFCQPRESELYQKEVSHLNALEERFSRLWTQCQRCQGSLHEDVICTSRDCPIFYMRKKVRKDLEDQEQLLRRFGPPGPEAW

Variant | effect of a mutation on the interaction
F102C | with no effect

Variants of: B1
Settings: with dpoe1_human POLE

Variant | effect of a mutation on the interaction
F102C | with no effect

Variants of: B1
Settings: with ppard_human PPARD

Variant | effect of a mutation on the interaction
F102C | with no effect

Variants of: B1
Settings: with prdm1_human PRDM1, O75626

Variant | effect of a mutation on the interaction
F102C | with no effect

Variants of: B1
Settings: with prex2_human PREX2, Q70Z35

Variant | effect of a mutation on the interaction
F102C | with no effect

Variants of: B1
Settings: with aapk2_human PRKAA2, P54646

Variant | effect of a mutation on the interaction
F102C | with no effect

Variants of: B1
Settings: with prss8_human PRSS8, Q16651

Variant | effect of a mutation on the interaction
F102C | with no effect

Variants of: B1
Settings: with tf65_human RELA

Variant | effect of a mutation on the interaction
F102C | with no effect

Variants of: B1
Settings: with rictr_human RICTOR

Variant | effect of a mutation on the interaction
F102C | with no effect

Variants of: B1
Settings: with rnf43_human RNF43, Q68DV7
rnf43_human RNF43, Q68DV7, sequence (Q68DV7 whole entry): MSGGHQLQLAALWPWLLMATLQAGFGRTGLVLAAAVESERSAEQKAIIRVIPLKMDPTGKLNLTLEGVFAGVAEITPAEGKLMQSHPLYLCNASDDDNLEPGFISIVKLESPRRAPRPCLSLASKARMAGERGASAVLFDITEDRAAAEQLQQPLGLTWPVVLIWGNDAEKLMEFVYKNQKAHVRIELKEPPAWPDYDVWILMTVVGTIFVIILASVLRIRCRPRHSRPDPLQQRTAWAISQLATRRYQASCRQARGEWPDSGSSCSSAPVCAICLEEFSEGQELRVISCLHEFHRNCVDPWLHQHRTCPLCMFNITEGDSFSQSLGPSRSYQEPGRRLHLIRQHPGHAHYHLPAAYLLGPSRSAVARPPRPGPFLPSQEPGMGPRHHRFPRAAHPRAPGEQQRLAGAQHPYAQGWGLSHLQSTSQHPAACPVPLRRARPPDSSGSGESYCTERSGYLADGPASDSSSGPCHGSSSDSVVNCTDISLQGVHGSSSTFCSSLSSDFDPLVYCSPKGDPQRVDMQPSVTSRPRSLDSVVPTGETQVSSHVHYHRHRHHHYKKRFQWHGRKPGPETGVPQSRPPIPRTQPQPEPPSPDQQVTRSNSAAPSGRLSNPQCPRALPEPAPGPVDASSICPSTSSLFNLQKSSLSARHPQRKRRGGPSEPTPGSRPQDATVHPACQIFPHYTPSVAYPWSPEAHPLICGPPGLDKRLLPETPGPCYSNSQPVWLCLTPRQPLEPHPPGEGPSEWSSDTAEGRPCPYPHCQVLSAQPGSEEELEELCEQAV

Variant | effect of a mutation on the interaction
F102C | with no effect

Variants of: B1
Settings: with ros1_human ROS1, P08922

Variant | effect of a mutation on the interaction
F102C | with no effect

Variants of: B1
Settings: with rl11_human RPL11, P62913

Variant | effect of a mutation on the interaction
F102C | with no effect

Variants of: B1
Settings: with rl5_human RPL5, P46777

Variant | effect of a mutation on the interaction
F102C | with no effect

Variants of: B1
Settings: with rs15_human RPS15, P62841

Variant | effect of a mutation on the interaction
F102C | with no effect

Variants of: B1
Settings: with rptor_human RPTOR

Variant | effect of a mutation on the interaction
F102C | with no effect

Variants of: B1
Settings: with rxra_human RXRA

Variant | effect of a mutation on the interaction
F102C | with no effect

Variants of: B1
Settings: with sdha_human SDHA

Variant | effect of a mutation on the interaction
F102C | with no effect

Variants of: B1
Settings: with setbp_human SETBP1, Q9Y6X0
setbp_human SETBP1, Q9Y6X0, sequence (Q9Y6X0 whole entry): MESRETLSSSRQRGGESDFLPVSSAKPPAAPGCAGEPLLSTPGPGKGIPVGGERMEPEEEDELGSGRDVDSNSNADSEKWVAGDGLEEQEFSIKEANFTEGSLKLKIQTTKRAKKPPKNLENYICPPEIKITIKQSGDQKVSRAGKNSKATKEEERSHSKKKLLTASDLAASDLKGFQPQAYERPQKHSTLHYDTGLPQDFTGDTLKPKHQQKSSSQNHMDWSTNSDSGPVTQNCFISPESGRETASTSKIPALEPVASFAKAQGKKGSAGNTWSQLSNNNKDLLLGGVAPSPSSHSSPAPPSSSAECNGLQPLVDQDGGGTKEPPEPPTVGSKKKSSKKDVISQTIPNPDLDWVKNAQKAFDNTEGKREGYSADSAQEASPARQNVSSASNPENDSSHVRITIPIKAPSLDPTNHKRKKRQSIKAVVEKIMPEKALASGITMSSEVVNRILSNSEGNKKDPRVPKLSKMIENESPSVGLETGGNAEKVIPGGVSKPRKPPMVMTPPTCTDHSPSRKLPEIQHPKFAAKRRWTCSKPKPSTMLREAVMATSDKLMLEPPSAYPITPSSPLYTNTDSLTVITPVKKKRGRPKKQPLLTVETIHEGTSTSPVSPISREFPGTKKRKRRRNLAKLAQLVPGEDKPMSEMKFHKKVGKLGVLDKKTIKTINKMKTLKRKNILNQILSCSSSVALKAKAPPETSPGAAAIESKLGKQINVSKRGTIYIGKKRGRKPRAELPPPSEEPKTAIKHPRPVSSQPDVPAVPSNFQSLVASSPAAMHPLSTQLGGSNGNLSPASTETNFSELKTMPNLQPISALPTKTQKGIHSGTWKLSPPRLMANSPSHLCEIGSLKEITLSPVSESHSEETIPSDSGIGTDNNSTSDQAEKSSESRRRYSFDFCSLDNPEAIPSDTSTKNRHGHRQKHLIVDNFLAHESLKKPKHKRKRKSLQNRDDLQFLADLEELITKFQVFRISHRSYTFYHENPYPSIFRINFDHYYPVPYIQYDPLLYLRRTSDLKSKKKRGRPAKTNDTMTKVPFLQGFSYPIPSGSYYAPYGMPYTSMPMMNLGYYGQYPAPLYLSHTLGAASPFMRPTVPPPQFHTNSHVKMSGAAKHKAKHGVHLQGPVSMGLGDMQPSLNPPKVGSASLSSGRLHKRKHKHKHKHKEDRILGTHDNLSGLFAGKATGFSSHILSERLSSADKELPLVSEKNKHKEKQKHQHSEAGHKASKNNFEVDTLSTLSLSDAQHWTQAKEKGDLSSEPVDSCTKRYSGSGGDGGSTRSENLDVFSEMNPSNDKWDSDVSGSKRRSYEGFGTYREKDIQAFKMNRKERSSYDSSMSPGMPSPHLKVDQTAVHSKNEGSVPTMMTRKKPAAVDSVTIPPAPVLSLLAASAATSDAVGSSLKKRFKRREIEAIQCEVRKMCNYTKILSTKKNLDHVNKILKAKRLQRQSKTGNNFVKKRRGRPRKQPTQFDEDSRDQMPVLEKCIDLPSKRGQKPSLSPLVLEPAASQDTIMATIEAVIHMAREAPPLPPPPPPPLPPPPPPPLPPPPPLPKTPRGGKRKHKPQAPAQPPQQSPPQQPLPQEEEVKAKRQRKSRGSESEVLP

Variant | effect of a mutation on the interaction
F102C | with no effect

Variants of: B1
Settings: with skp2_human SKP2, Q13309

Variant | effect of a mutation on the interaction
F102C | with no effect

Variants of: B1
Settings: with smad1_human SMAD1, Q15797
smad1_human SMAD1, Q15797, sequence (Q15797 whole entry): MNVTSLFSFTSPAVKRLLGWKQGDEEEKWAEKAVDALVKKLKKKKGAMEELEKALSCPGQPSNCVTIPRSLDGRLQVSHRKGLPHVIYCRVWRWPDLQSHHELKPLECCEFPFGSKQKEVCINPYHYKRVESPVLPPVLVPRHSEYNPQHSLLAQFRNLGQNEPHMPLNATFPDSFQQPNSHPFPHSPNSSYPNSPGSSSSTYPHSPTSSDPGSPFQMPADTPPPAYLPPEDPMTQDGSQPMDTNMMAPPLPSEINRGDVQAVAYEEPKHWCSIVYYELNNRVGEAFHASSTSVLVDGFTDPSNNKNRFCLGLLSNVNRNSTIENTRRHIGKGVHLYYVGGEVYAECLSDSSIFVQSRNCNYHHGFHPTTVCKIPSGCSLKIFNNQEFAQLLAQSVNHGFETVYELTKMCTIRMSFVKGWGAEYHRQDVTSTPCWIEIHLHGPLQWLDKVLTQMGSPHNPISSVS

Variant | effect of a mutation on the interaction
F102C | with no effect

Variants of: B1
Settings: with smca4_human SMARCA4, P51532

Variant | effect of a mutation on the interaction
F102C | with no effect

Variants of: B1
Settings: with snf5_human SMARCB1, Q12824

Variant | effect of a mutation on the interaction
F102C | with no effect

Variants of: B1
Settings: with smo_human SMO

Variant | effect of a mutation on the interaction
F102C | with no effect

Variants of: B1
Settings: with socs1_human SOCS1, O15524

Variant | effect of a mutation on the interaction
F102C | with no effect

Variants of: B1
Settings: with sox10_human SOX10, P56693

Variant | effect of a mutation on the interaction
F102C | with no effect

Variants of: B1
Settings: with sox2_human SOX2, P48431

Variant | effect of a mutation on the interaction
F102C | with no effect

Variants of: B1
Settings: with src_human SRC

Variant | effect of a mutation on the interaction
F102C | with no effect

Variants of: B1
Settings: with whr1_human WHR1, P49842

Variant | effect of a mutation on the interaction
F102C | with no effect

Variants of: B1
Settings: with stk38_human STK38, Q15208

Variant | effect of a mutation on the interaction
F102C | with no effect

Variants of: B1
Settings: with eloc_human ELOC

Variant | effect of a mutation on the interaction
F102C | with no effect

Variants of: B1
Settings: with tfe2_human TCF3, P15923

Variant | effect of a mutation on the interaction
F102C | with no effect

Variants of: B1
Settings: with tead1_human TEAD1, P28347

Variant | effect of a mutation on the interaction
F102C | with no effect

Variants of: B1
Settings: with tead3_human TEAD3, Q99594

Variant | effect of a mutation on the interaction
F102C | with no effect

Variants of: B1
Settings: with tead4_human TEAD4, Q15561

Variant | effect of a mutation on the interaction
F102C | with no effect

Variants of: B1
Settings: with tgfr2_human TGFBR2, P37173

Variant | effect of a mutation on the interaction
F102C | with no effect

Variants of: B1
Settings: with tnr14_human TNFRSF14, Q92956

Variant | effect of a mutation on the interaction
F102C | with no effect

Variants of: B1
Settings: with tsc2_human TSC2, P49815

Variant | effect of a mutation on the interaction
F102C | with no effect

Variants of: B1
Settings: with tshr_human TSHR

Variant | effect of a mutation on the interaction
F102C | with no effect

Variants of: B1
Settings: with vegfa_human VEGFA

Variant | effect of a mutation on the interaction
F102C | with no effect

Variants of: B1
Settings: with vhl_human VHL

Variant | effect of a mutation on the interaction
F102C | with no effect

Variants of: B1
Settings: with wee1_human WEE1, P30291

Variant | effect of a mutation on the interaction
F102C | with no effect

Variants of: B1
Settings: with wwtr1_human WWTR1, Q9GZV5
wwtr1_human WWTR1, Q9GZV5, sequence (Q9GZV5 whole entry): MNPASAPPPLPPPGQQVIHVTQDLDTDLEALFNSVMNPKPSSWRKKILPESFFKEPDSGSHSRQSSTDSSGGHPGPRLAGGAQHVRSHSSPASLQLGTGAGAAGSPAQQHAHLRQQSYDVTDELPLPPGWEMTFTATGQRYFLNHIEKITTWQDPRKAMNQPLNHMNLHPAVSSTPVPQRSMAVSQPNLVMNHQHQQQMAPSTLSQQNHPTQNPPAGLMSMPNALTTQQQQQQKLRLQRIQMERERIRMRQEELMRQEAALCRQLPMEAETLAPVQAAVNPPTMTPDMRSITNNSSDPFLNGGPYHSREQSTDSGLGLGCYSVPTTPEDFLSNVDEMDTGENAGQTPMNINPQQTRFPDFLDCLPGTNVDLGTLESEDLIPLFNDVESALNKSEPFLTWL

Variant | effect of a mutation on the interaction
F102C | with no effect

Variants of: B1
Settings: with xpo1_human XPO1, O14980

Variant | effect of a mutation on the interaction
F102C | with no effect

Variants of: B1
Settings: with igf1r_human IGF1R

Variant | effect of a mutation on the interaction
F102C | causing an interaction

Variants of: B1
Settings: with etv1_human ETV1, P50549

Variant | effect of a mutation on the interaction
F102C | disrupting interaction strength

Variants of: B1
Settings: with pk3ca_human PIK3CA
Remark: another data set of the same source

Variant | effect of a mutation on the interaction
F102C | increasing interaction strength
